Measured values taken from publication PMC6615493, “The Role of Iron and Copper on the Oligomerization Dynamics of DR_2577, the Main S-Layer Protein of Deinococcus radiodurans” (Frontiers in Microbiology, 2019).
Several values for one entry are separate records, joined by “and”; a condition that tells them apart may be missing. Identical values can stand only once.

Molecular target: the molecule itself
Assay: SEC; Superose 6 10/300GL, 50 µl protein at 0.2 mg/ml, 0.05% β-DDM; 50 mM phosphate (pH >= 7) or 50 mM Na acetate (pH <= 6); control runs, runs with EDTA, at lower pH and with Cu2+; close-to-native conditions

B1: DR_2577, the main S-layer protein of Deinococcus radiodurans (natural protein, UniProt Q9RRB6 23-1167, looked up)
chain: APVSAPQVPALTDVPAGHWAKDAIDRLVSRGVILGYPDGTFRGTQNLTRYEAAIIIARLLDQMRDGETPAGMTAEDMTALQNAIQELAADLAALGVRVSDLEANAVSKDDFARLEARIEEVAAAGGEQGATEALQGQIDDLTARVDEYDALRADVDDNASSIAALNDLTVLLNQDILDLQDRVSAVEAAQADFVQRSDFDALGGRVTTVETRVETVNNSLTGRIAALERNAFSVKPSLTIGYSVSRTSRNFDVDRLFPLNADGTVANNAFTSGGIDTDTGAQRRDFGDFGNASDPVVAGAAGLYGFADGVSYTVYFTDGSTATFDGLNPADYKVPTGKVIDTTKGRNGFGFNNLARYKEGSTDIGISLGFDTSGQFSQVTSGTGGSLFSTAGRLQVNQIDLNFGLVTGLPSDAYVDTNGNGKKDDGEATGRGTYLGSGGTAAILRDPAGNVYRPVFFRFKNATTQFSVGNNPVIVTLGQQQKFYFSDYVFDNNYDGRGDGFTVTVDGSNVPVIGAWKPQIKGVYGSRSGLDGTAEAGYGVYYRGVRAQITPVGTLTAGIHYAQEGRDMFGAAQNTTSTPSDVTTYGADLHGKAFGVELHSEYATSRVRPNTANAAVQTSNAFYARVATRKDNLAFDLNTPAAKFGNDTFGVSLYDLNYRKIDAGYNNVAGISEYGYGSYSRTSAQNIAYNPDTGVTAPFANLDRQAYTDANNDGTSDRNADGTVVATNTKIGQMGFGVKAAANLGPVAIGGYYDTSTGANGDNANRMTEAGGSAKVAYSIFSLRGTYNTLDSNRPQIYRDAAGTQIIGDAKVRRYAVQADVTPGLGLFVGAYYRDVNVNGVRSTTDRGLLGRGYLASSFEPGVGNNAYRTGLRCADNNFGTGTRDIDGVGGVLNPAVNLDQSRTATCFTSYGVEAGHAGDNANALVKDLFFRVGYSRVYVPTTATATTGDFSGSVTYGDARYDRKVGVANVRLAGSFSTTNTQLDSRPAGTRGAVGLIVRTDPLENVPFRPQFNGQVGYYTADNRVAAGNYNANATKYGAGVVLNDFLLPQTKIGVRYDGYMAQNRQYTPFDGDGTQGYFSDANNNRRTNLNGVYVEGAYQDLIFSYGTYTLSQKDLNGVEYGSGINNGQPARGQTFKISYKVNF
notes: DR_2577 (SlpA), main S-layer protein of Deinococcus radiodurans strain R1; The introduction describes it as a homo-hexamer of ~760 kDa (trimer of dimers); the dimers are said (cited work) to be held by intermolecular disulfide bonds; also called SlpA
stoichiometry N: 6 and 2
